Measured values from patent US20060036083.

System: ADP-ribosylated HNP-1
Sequence (chain, as listed by the source): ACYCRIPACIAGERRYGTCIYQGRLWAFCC

recombinant human ADP-ribosylarginine hydrolase
Release of ADP-ribose from ADP-ribosylated HNP-1 (MALDI-MS): released a molecule of 3,444 daltons consistent with HNP-1 (calculated 3, 443 daltons)
